# From the nanobody polyreactivity screen of Harvey et al. (2022)
# Test: yeast display, Sf9 membrane polyspecificity reagent, FACS + sequencing; frameworks hold sequencing errors
# In short: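 Using colony PCR, genes from sorted yeast display clones were amplified, then sequenced on MiSeq at 2 × 250 and filtered by CDR length. The clones had been stained with 10% biotinylated, detergent-solubilized Sf9 membrane reagent for 1 hour at 4 °C and sorted by FACS into low and high (top ~1%) gates on anti-HA and streptavidin fluorescence. Polyreactivity labels come from the gate of origin.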
row,Sequence,polyreactivity (PSR sort gate)
1,QVQLVESGGGLVQAGGSLRLSCAASGSIFRFYAMGWYRQAPGKERELVAAISSGGSTYYADSVKGRFTISRDNAKNTVYLQMKSLKPEDTAVYYCAHGFAQYGLDLDPGDYDYWGQGTQVTVSS,low polyreactivity
2,QVQLVESGGGLVQAGGSLRLSCAASGSIFRFYAMGWYRQAPGKERELVADISWRGGSTYYADSVKGRFTISRDNAKNTVYLQMNSLKPEDTAVSYCAAGYYRASTTVTHGGIEGDSWGQGTQVTVSS,high polyreactivity
3,QVQLVESGGGLVQAGGSLRLSCAASGSIFRFYAMGWYRQAPGQERELVAAITSGGSTNYADSVKGRFTISRDNAKNTVYLQMNSLKPEDTAVYYCAAVLVYFFIYDYWGQGTQVTVSS,low polyreactivity
4,QVQLVESGGGLVQAGGSLRLSCAASGSIFRGNALGWYRQAPGKERELVATITNGGSTNYADSVKGRFTISRDNAKNTVYLQMNSLKPEDTAVYSCNADHSYHIASTRHVDYWGQGNQVTVSS,low polyreactivity
5,QVQLVESGGGLVQAGGSLRLSCAASGSIFRGYALGWYRQAPGKERALVAAITKRGGNTYYADSVKGRFTISRDHAKNTVYLQMNSLKPEDTAVYYCAKAGWGKWVYAQMVYWGQGTQVTVSS,high polyreactivity
6,QVQLVESGGGLVQAGGSLRLSCAASGSIFRGYAMGWYRQAPGKERELVAAITSSGGSTNYADSVKGRFTISRDNAKNTVYLQMNSLKPEDTAVYYCAKAPGLWHLIQRMDYWGQVTQVTVSS,low polyreactivity
7,QVQLVESGGGLVQAGGSLRLSCAASGSIFRGYAMGWYRQAPGKERELVAVIRRTSGSTYYADSVKGRFTISRDNAKNTVYLQMNSLKPEDTAVYYCNTLRHSSYPSYGYWGQGTQVTVSS,high polyreactivity
8,QVQLVESGGGLVQAGGSLRLSCAASGSIFRGYAMGWYRQAPGKERELVAVITKSGGRTYYADSVKGRFTISRDNAKNTVYLQMNRLKPEDTAVYYCAKQPGSAYDYWGQGTQVTVSS,high polyreactivity
9,QVQLVESGGGLVQAGGSLRLSCAASGSIFRGYTMGWYRQAHGKERELVAAITSGDSTNYADSVKGRFTISRDNAKNTVYLQMKSLKPEDTAVYSCAAVTRFYTKYYWGQGTQVTVSS,high polyreactivity
10,QVQLVESGGGLVQAGGSLRLSCAASGSIFRGYTMGWYRQAPGKERELVAAITSGDSTNYADSVKGRFTISRDNAKNTVYLQMNSLKPEDTAVYYCAAGRLYLPYLVYRTYSFVGYYYWGQGTQVTVSS,high polyreactivity
11,QVQLVESGGGLVQAGGSLRLSCAASGSIFRGYTMGWYRQATGKERELVAAITSGDSTNYADSVKGRFTISRDNAKNTVYLQMNSLKPEDTAVYYCAAGRLYLPYLVYLTYSFVGYYYWGQGTQVTVSS,high polyreactivity
12,QVQLVESGGGLVQAGGSLRLSCAASGSIFRGYVRGWYRQAPGKERELVAAITWSTGSTYYADSVKGRFTISRDNAKNTVYLQMNSLKPEDTAVYYCAAVRRWAANRYQSGVTGNYWGQGTKVTVSS,high polyreactivity
13,QVQLVESGGGLVQAGGSLRLSCAASGSIFRHNAMGWYRQAPGKERELVAAISRRASSTYYADSVKGRFTISRDNAKNTVYVQMNSLKPEDTAVYYCAVVPSSTYHAYDYWGQGTQVTVSS,high polyreactivity
14,QVQLVESGGGLVQAGGSLRLSCAASGSIFRIKAMGWSRQAPGKERELVAAITGRVGSTYYADSVKGRFTISRDNAKNTVYLQMNSLKPEDTAVYYCAARAGSSRYTREYRYDYWGQGTQVTVSS,high polyreactivity
15,QVQLVESGGGLVQAGGSLRLSCAASGSIFRINAMGWYRPAPGKEREFVAAIRGSGGRTYYAESVKGRFTISRDNAKNTVYLQMNSLKPEDTAVYYCAADFSYRYFQRTSWPFDYWGQGTQVTVSS,high polyreactivity
16,QVQLVESGGGLVQAGGSLRLSCAASGSIFRINAMGWYRQAPGKERELVAAISWSGGSTYYADSVKGRFTISRDNAKNTVYVQMNSLKPEDTAVYYCAAVVSKSSFDYWGQGTQVTVSS,low polyreactivity
17,QVQLVESGGGLVQAGGSLRLSCAASGSIFRIYAMGGYRQAPGKERELVAAITGRGGSTYYADSVKGRFTISRDNAKNTVYLQRNSLKPEDTAVYYCAAEERYAYRYDYWGQATQVTVSS,high polyreactivity
18,QVQLVESGGGLVQAGGSLRLSCAASGSIFRIYAMGWYRQATGKETELVAAITWSGGSTYYADSVKGRFTISRDNAKNSVYLQMNSLKPEDTAVYYCAAVVIYWYQRVGYRSDYWGQGTQVTVSS,high polyreactivity
19,QVQLVESGGGLVQAGGSLRLSCAASGSIFRKNAMGRYRQAPGKERELVAAITGTGRTTYADSVKGRFTISRDNAKNTVYLQMNSLKPEDTAVYYCAADVNYYQHRLYYWGQGTQVTVSS,low polyreactivity
20,QVQLVESGGGLVQAGGSLRLSCAASGSIFRKNAMGWYRQAPGKERELVAAISSSGGRTYYADSVKGRFTISRDNAKNTVYLQMNSLKPEDTAVYYCNTGPGQSFRYNYWGQGTQVTVSS,high polyreactivity
21,QVQLVESGGGLVQAGGSLRLSCAASGSIFRLNAMGWYRQAPGKERELVAAISVSGTRTYYADSVKGRFTISRDNAKNIVYLQMNSLKPEDTAVYYCAARVYKGQGKGDYWGQGTQVTVSS,high polyreactivity
22,QVQLVESGGGLVQAGGSLRLSCAASGSIFRLNTKGGYRQAPGKERELVAAISNGGRTYYADSVTGRFTISRDNAKNTVYLQMNSLKPEDTAVYYCNVRYGRSKIYGYWGQGTQVTVSS,high polyreactivity

row,Sequence,polyreactivity (PSR sort gate)
1,QVQLVESGGGLVQAGGSLRLSCAASGSIFRNNAMGWYRQAPGKERELVASITRRGGSTYYADSVKGRFTISRDNAKNTVYLQMNSLKPEDTAVYYCAATTQHRYKLNYWGQGTHVTVSS,high polyreactivity
2,QVQLVESGGGLVQAGGSLRLSCAASGSIFRNNAMGWYRQAPGKERELVAVINSRGGTTYYADSVKGRFTISRDNAMNPVYLQMNSLIPEDTAVYYCAARIRTSDRRYYWGQGTQVTVSS,high polyreactivity
3,QVQLVESGGGLVQAGGSLRLSCAASGSIFRNYAMGRSRQAPGKERELVAAITSGVRTNYADSVKGRFTISRDNAKNTVYLQMNSLKPEDTAVYYCNKGYNAVWRYRGDYWGQGTHVTVSS,high polyreactivity
4,QVQLVESGGGLVQAGGSLRLSCAASGSIFRNYAMGWSRQAPGKERELVAAINWNGGSTYYADSVKGRFTISRDNAKNTVYLQMNSLKPEDTAVYYCAARSSKFVTSNRYDYWGQGTQVTVSS,high polyreactivity
5,QVQLVESGGGLVQAGGSLRLSCAASGSIFRPNAMGWYRQAPGKERELVAAITFRGSRTYYADSVKGRFTISRDNAKNTVYLQMNSLKPEDTAVYYCNADYSSYWTSYDYWGQGTQVTVSS,high polyreactivity
6,QVQLVESGGGLVQAGGSLRLSCAASGSIFRPNAMGWYRQAPGKERELVAAITWSGDSTYYADSVKGRFTLSRDNAKNTVYRQMNSLKPVDTAVYYCATDPDYVLYRTAYYEFDYWGQGTHVTVSS,low polyreactivity
7,QVQLVESGGGLVQAGGSLRLSCAASGSIFRPNTMGWYRQAPGKERELVAAIRAGGRTYYADSVKGRFTISRDNAKNTVYLQMNSLKPEDTAVYYCNAVPASASTWRGQVGYDYWGQGTQVTVSS,high polyreactivity
8,QVQLVESGGGLVQAGGSLRLSCAASGSIFRPSAMGWYRQAPGKERELVAAIRWSTGNTYYADSVKGRFTISRDNAKNTVYLQMNSLKPEDTAVYYCAAAYWPVVWFYYWGQGTQVTVSS,low polyreactivity
9,QVQLVESGGGLVQAGGSLRLSCAASGSIFRPYAMGWYRQAPGKERELVAAITSGGRTNYADSVKGRFTISRDNAKNTVYLQMNSLKPEDTAVYYCAKTGSYAKIRPNNDYWGQGTQVTVSS,low polyreactivity
10,QVQLVESGGGLVQAGGSLRLSCAASGSIFRPYTMGWYRQAPGKEREFVAAITWSDGSTYYADSVKGRFTISRDNAKNTVYLQINSLKPLDTAVYDCAADLHDGYYYSFWYGYDYWGQGTQVTVSS,low polyreactivity
11,QVQLVESGGGLVQAGGSLRLSCAASGSIFRQYAMGWYRQAPGKERELVAAITYSGGNTYYADSVKGRFTISRDNAKNTVYLQMNSLKPEDTAVYYCAADYGSRSWEYNYWGQGTQVTVSS,low polyreactivity
12,QVQLVESGGGLVQAGGSLRLSCAASGSIFRQYAMGWYRQAPGKERELVATISRSGGSTYYADSVKGRFTISRDNAKNTVYLQMNSLKPEDTAVYYCAASRYNKSYREWWVGSWGQGTQVTVSS,high polyreactivity
13,QVQLVESGGGLVQAGGSLRLSCAASGSIFRRNAMGWYRQAPAKERDLVAAISVRGGSTYYAYSVKGRFTISRDLAKNTVYLQMISLKPEDTAVYYCAADEFDDYDWYRGYDSTYDYWGQGTQVTVST,low polyreactivity
14,QVQLVESGGGLVQAGGSLRLSCAASGSIFRRNAMGWYRQAPGKERELVAAINSGGTTYYADSVKGRFTNSRDNAKNTVYLQMNSLKPEVTAVYYCATVYRGWYYYWGQGTQVTVSS,high polyreactivity
15,QVQLVESGGGLVQAGGSLRLSCAASGSIFRRNAMGWYRQAPGKERELVAAISIRGGSTYYADSVKGRFTISRDNAKNTVYLQMNSLKPEDTAVYYCNAKFRKADYDYWGQGTQVTVSS,high polyreactivity
16,QVQLVESGGGLVQAGGSLRLSCAASGSIFRRNAMGWYRQAPGKERELVATITSDGSTDYADSVKGRFTISRDNAKNTFYLQMISLKPEDTAVYYCAVAYLWRPYDFREFDYWGQGTQVTLSS,low polyreactivity
17,QVQLVESGGGLVQAGGSLRLSCAASGSIFRRNAMGWYRQAPGTERELVAAISLRGGSTYYADSVKGRFTISRDLAKNTVYLQMISLKTQDTAVYYCADDEFDDYDWYRGYDTTYDYWGQGTQVTGSS,low polyreactivity
18,QVQLVESGGGLVQAGGSLRLSCAASGSIFRRYAMGWYRQAPGKEREFVAAITGSGGRTYYADSVKGRFTISRDNAKNTVYLQMNSLKPEDTAVYYCAARRRDRVTYYYWGQGTQVTVSS,high polyreactivity
19,QVQLVESGGGLVQAGGSLRLSCAASGSIFRRYAMGWYRQAPGKERELVAGISSGGYTNYADSVKGRFTISRDNAKNTVYLQMNRLKPEDTAVYYCAAKQYRYVRYRPVDYWGQGTQVTVSS,high polyreactivity
20,QVQLVESGGGLVQAGGSLRLSCAASGSIFRRYAMGWYRQAPGKERELVATITSSVCRTYYADSVKARFTISRDTAKNTVYLQMNSLKPEETAVYFCAVYVGLWGAGGKGDYWGQGTQVTVSS,low polyreactivity
21,QVQLVESGGGLVQAGGSLRLSCAASGSIFRRYAMGWYRQEPGKEMEFVAAITGSGGRTYYADSVKGRITISRDNAKNTVYLQMNSLKPEDTAVYYCAARRRDRVTYYYWGQGTQVTVSS,high polyreactivity
